{"source": "IntAct's records for PubMed 12586840", "target": "ap2a_human TFAP2A (UniProt P05549)", "sequence (P05549 whole entry)": "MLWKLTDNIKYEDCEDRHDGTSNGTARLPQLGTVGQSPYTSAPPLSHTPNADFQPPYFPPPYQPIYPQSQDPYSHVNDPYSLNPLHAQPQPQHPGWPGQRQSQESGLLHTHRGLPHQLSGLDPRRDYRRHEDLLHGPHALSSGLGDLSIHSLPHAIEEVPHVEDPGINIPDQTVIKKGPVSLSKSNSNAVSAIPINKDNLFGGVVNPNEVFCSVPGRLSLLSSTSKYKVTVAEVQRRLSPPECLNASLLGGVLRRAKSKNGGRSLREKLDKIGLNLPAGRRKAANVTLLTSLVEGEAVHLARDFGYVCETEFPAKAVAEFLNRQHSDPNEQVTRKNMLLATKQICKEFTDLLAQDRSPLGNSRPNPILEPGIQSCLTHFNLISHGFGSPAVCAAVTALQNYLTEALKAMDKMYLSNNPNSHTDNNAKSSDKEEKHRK", "data": [{"substance": "Histone acetyltransferase p300 (Homo sapiens), Q09472 D1399Y", "values": [{"measurement": "effect of a mutation on the interaction", "result": "disrupting interaction"}]}]}
